Results published in US20010041670A1 (published 2001).
One block for each binder: values may come before it.

Legend:
[1] = molecular target: T1, Thrombospondin-1 (TSP-1) (human, UniProt P07996 19-1170); assay: solid phase competition: 125I-TSP-1 binding to immobilized HRGP
T1 construct: mature; Native protein from human platelet releasate. 'Mature' is inferred from that source
Protocol: Solid phase binding assays were performed as described (18). […] Non-specific binding was determined by carrying out binding in the presence of excess unlabeled ligand.

[2] = molecular target: T1, Thrombospondin-1 (TSP-1); assay: cell-based or functional assay

T1 sequence (P07996 19-1170): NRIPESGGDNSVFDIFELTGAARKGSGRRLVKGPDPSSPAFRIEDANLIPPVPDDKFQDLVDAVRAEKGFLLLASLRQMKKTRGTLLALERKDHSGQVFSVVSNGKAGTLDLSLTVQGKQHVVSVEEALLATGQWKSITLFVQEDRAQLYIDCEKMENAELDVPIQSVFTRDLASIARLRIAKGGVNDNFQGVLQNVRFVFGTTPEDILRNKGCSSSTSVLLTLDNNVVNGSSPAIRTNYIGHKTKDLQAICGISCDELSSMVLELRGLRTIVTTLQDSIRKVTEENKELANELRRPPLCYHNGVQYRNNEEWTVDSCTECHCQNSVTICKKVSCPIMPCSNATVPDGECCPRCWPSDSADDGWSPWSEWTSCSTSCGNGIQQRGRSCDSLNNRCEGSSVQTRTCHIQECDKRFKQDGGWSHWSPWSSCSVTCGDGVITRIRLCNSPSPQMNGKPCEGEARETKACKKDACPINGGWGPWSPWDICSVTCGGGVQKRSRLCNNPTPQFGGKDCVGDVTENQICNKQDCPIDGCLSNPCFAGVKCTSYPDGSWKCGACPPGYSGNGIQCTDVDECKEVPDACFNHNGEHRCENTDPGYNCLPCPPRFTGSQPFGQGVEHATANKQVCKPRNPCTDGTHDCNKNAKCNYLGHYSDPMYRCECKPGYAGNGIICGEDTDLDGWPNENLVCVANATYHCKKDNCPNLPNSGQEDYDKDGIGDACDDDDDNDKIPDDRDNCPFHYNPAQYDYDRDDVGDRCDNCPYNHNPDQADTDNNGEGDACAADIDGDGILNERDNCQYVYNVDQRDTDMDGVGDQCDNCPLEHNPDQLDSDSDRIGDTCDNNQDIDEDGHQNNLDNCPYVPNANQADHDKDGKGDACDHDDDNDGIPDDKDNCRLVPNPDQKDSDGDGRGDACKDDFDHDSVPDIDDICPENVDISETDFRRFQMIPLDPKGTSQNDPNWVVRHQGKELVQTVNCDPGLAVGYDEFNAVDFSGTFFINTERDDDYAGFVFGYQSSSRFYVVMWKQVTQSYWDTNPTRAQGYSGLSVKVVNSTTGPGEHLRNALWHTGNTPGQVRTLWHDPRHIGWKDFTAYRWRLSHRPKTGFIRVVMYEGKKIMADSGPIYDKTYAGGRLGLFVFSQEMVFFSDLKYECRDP

- binding result [1]: no binding
B1: CD36 FP298-439 (other, UniProt P16671 298-439, looked up)
chain: KAFASPVENPDNYCFCTEKIISKNCTSYGVLDISKCKEGRPVYISLPHFLYASPDVSEPIDGLNPNEEEHRTYLDIEPITGFTLQFAKRLQVNLLVKPSEKIQVLKNLKRNYIVPILWLNETGTIGDEKANMFRSQVTGKIN
notes: also called GST-CD36 fusion protein; not shown: Glutathione-S-transferase fusion partner

- area of neovascularization relative to bFGF alone, corneal assay, pellets with bFGF, TSP-1 and HRGP (100 ng, HRGP:TSP-1 molar ratio 3:1) [2]: 82.5%
B2: Histidine-rich glycoprotein (HRGP) (other, human, UniProt P04196 19-525, looked up)
chain: VSPTDCSAVEPEAEKALDLINKRRRDGYLFQLLRIADAHLDRVENTTVYYLVLDVQESDCSVLSRKYWNDCEPPDSRRPSEIVIGQCKVIATRHSHESQDLRVIDFNCTTSSVSSALANTKDSPVLIDFFEDTERYRKQANKALEKYKEENDDFASFRVDRIERVARVRGGEGTGYFVDFSVRNCPRHHFPRHPNVFGFCRADLFYDVEALDLESPKNLVINCEVFDPQEHENINGVPPHLGHPFHWGGHERSSTTKPPFKPHGSRDHHHPHKPHEHGPPPPPDERDHSHGPPLPQGPPPLLPMSCSSCQHATFGTNGAQRHSHNNNSSDLHPHKHHSHEQHPHGHHPHAHHPHEHDTHRQHPHGHHPHGHHPHGHHPHGHHPHGHHPHCHDFQDYGPCDPPPHNQGHCCHGHGPPPGHLRRRGPGKGPRPFHCRQIGSVYRLPPLRKGEVLPLPEANFPSFPLPHHKHPLKPDNQPFPQSVSESCPGKFKSGFPQVSMFFTHTFPK
